Data from US20100239594A1 (IBIO, published 2010).

T1: Bacillus anthracis lethal factor (LF) polypeptide (Bacillus anthracis, UniProt P15917 34-809)
T1 sequence: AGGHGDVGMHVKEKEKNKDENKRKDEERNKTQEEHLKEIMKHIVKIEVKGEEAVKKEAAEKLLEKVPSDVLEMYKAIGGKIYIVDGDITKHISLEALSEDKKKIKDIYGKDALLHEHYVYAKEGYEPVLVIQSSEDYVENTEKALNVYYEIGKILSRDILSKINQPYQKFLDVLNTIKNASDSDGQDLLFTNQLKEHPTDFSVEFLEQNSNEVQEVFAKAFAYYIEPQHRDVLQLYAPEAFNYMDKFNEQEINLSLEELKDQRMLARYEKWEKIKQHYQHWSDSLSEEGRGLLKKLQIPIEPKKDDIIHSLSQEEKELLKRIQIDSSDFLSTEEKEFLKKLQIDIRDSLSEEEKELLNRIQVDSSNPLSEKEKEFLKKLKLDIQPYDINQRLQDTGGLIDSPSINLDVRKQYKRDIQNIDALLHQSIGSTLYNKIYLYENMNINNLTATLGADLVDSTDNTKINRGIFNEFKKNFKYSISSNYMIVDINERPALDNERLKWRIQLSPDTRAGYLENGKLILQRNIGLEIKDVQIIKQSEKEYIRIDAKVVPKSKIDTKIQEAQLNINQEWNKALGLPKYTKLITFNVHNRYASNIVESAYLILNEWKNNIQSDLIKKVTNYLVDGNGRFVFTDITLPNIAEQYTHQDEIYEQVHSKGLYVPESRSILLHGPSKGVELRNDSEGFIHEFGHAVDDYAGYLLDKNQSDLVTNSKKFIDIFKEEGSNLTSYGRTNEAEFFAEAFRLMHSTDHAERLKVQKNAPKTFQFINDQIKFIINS


What was measured:
[1] = target: T1, Bacillus anthracis lethal factor (LF) …; experiment: Western blot and ELISA, plant-produced antibody
[2] = target: Bacillus anthracis protective antigen (PA) polypeptide (Bacillus anthracis, UniProt P13423 30-764); experiment: Western blot and ELISA, plant-produced antibody
Bacillus anthracis protective antigen (PA) polypeptide, sequence (P13423 30-764 limits assumed): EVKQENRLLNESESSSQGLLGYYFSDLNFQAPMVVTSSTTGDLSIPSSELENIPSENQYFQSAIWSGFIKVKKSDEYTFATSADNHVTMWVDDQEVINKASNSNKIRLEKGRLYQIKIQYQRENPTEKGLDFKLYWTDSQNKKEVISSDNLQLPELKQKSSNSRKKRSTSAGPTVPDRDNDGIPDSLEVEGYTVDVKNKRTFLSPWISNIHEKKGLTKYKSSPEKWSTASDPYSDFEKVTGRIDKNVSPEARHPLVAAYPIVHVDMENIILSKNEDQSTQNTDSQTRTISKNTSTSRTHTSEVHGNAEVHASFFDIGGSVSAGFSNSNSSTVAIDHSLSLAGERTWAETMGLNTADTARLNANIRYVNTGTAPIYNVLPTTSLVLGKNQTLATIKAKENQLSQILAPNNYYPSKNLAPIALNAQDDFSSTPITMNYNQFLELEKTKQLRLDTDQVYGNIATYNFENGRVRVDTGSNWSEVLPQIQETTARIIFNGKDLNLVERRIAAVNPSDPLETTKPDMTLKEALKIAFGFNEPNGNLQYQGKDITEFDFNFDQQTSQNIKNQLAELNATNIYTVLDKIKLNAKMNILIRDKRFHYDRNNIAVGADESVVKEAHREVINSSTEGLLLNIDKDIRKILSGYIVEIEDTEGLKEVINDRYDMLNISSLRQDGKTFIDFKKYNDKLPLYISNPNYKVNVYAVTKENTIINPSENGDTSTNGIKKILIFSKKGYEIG

Binder | binding result [1] | binding result [2]
LF-1 huMAb, plant-produced LF antibody (antibody, V domains shown) VH: EVQLLESGGGLVQPGGSLRLSCSGSGFMFSSYAMSWVRQAPGKGLEWVSGISGSGGTTNYADSVKGRFTISRDNSKNTLYMQMNSLRAEDTAVYYCAKDGVYGRLGGSDYWGQGTLVTVSS VL: EIVLTQSPDFQSVSPKEKVTITCRASQSVGSSLHWYQQKPDQSPKLLIKYASQSFSGVPSRFSGSGSGTDFTLTINSLETEDAATYYCHQSSSLPLTFGGGTKVEIKR | binds | 
PA-1 huMAb, plant-produced glycosylated PA antibody (antibody, V domains shown) VH: QVQLVQSGAEVKKPGASVKVSCKASGYTFTSNAIQWVRQAPGQRLEWVGWINGGDGNTKYSQKFQGRVTISRDISASTAYMELSSLRSEDTAVYYCARHRLQRGGFDPWGQGTLVTVSS VL: EIVLTQSPGTLSLSPGERATLSCRASQSVSYSSLAWYQQKPGQAPSLLIYGASSRATGIPDRFSGSGSGPDFTLTISRLEPEDFAVYYCQHYGNSPYTFGQGTKLEIKR |  | binds
